Measured values: the nanobody polyreactivity screen of Harvey et al. (2022)

Assay: yeast display, Sf9 membrane polyspecificity reagent, FACS + sequencing; frameworks hold sequencing errors
Summary of the method: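 A synthetic nanobody library was expressed on Saccharomyces cerevisiae BJ5465 by galactose induction for 36–48 hours. The library was stained for 1 hour at 4 °C with 10% biotinylated, detergent-solubilized Sf9 membrane reagent and enriched with streptavidin microbeads before FACS. Low and high (top ~1%) gates were set on anti-HA fluorescence for expression and streptavidin fluorescence for reagent binding, and each polyreactivity label reflects the gate of origin.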
For “QVQLVESGGGLVQAGGSLRLSCAASGFTFAYNAMGWYRQAPGKETELVAAINSGGGRTYYADSVKGRFTISRDNAKNTVYLQMNSLKPEATAVYYCNAYPYKLDYDYWGQGTQVTVSS”, the “polyreactivity (PSR sort gate)” value was “high polyreactivity”.
In the case of “QVQLVESGGGLVQAGGSLRLSCAASGFTFAYYAMGWYRQAPGKEREFVAAINKGGGSTNYADSVKGRFTISRDNAKNTVYLQMNSLKPEDTAVYYCNADYFVWYIGRVFSRYGYWGQGTQVTVSS”, the “polyreactivity (PSR sort gate)” value is reported as “low polyreactivity”.
For “QVQLVESGGGLVQAGGSLRLSCAASGFTFAYYAMGWYRQAPGKERELVAAISERGGSTYYADSVKGRFTISRDNAKNTVDLQMNSLKPEDTAVYYCARTFWDSPWYQSSYYSWGQGTQVTVSS”, the “polyreactivity (PSR sort gate)” value was “low polyreactivity”.
With “QVQLVESGGGLVQAGGSLRLSCAASGFTFAYYAMGWYRQAPGKERELVAAITSRGGSTYYADSVKGRFTISRDNAKNTVYLQMNSLKPEDTAVYYCATKRVLTGYDSWGQGTQVTVSS” the “polyreactivity (PSR sort gate)” value was “high polyreactivity”.
In the case of “QVQLVESGGGLVQAGGSLRLSCAASGFTFAYYTMGWYRQAPGKERELVAAINWSGGSTYYADSVKGRFTISRDYAKNTVYLQMNSLKPEDTAVYYCAAKSYWWATYDYWGQGTQVTVSS”, the “polyreactivity (PSR sort gate)” value is reported as “high polyreactivity”.
For “QVQLVESGGGLVQAGGSLRLSCAASGFTFAYYTMGWYRQAPGKERELVATISTSGGSTYYADSVKGRFTISRDNAKNTVYLQMNSLKPEDTAVYYCNRDLGRYYHWYDYWGQGTQVTVSS”, the “polyreactivity (PSR sort gate)” value was “low polyreactivity”.
In the case of “QVQLVESGGGLVQAGGSLRLSCAASGFTFAYYVMGWYRQAPGKERELVAAITRSGDITSYADSVKGRFTISRDNAKNTVYLQMNSLKPEDTAVYYCNARLGYQSRRYNYWGQGTQVTVSS”, the “polyreactivity (PSR sort gate)” value is reported as “high polyreactivity”.
For “QVQLVESGGGLVQAGGSLRLSCAASGFTFDDYAMGWYRQAPGKERELVAAIDDDSSTNYADSVKGRFTISRDNAKNTVYLQMNSLKPEDTAVYYCNARARVSGKWYNYWGQGTQVTVSS”, the “polyreactivity (PSR sort gate)” value was “high polyreactivity”.
With “QVQLVESGGGLVQAGGSLRLSCAASGFTFDFNAMGWSRQAPGKERELVAAISSGASTNYADSVKGRFTISRDNAKNTVYLQMNSLKPEDTAVYYCAARSRTPGWYSTISRKMYWGQGTQVTVSS” the “polyreactivity (PSR sort gate)” value was “high polyreactivity”.
With “QVQLVESGGGLVQAGGSLRLSCAASGFTFDFYALGWYRQAPGKERELVAAISKNDGTTYYADSVKGRFTISRDNAKNTVYLQMNSLKPEDTAVYYCNAGNNVVVDYDYWGQGTQVTVSS” the “polyreactivity (PSR sort gate)” value was “low polyreactivity”.
In the case of “QVQLVESGGGLVQAGGSLRLSCAASGFTFDFYAMGWNRQAPGKERELVAVISSSGRTYYADSVKGRFTISRDNAKNSVYLQMNSMKPEDTAVYYCDAKDKRGHTYDYWGQGTQVTVSS”, the “polyreactivity (PSR sort gate)” value is reported as “high polyreactivity”.
For “QVQLVESGGGLVQAGGSLRLSCAASGFTFDGYAIGWYRQAPGKERDLVAAISGAGGSTYYADSVKGRFTISRDNAKNTVYFQMNSLKPEDTAFYYCAAEWIADLSSPVWYDYWGQGTQVTVSS”, the “polyreactivity (PSR sort gate)” value was “high polyreactivity”.
For “QVQLVESGGGLVQAGGSLRLSCAASGFTFDGYAMGSYRQAPGKERELVAAISDSGDSTYYADSVKGRFTISRDNAKNTVYLQMNSLKPEDTAVYYCAAPSVGYYDPTDFDYWGQGTQVTVSS”, the “polyreactivity (PSR sort gate)” value was “low polyreactivity”.
For “QVQLVESGGGLVQAGGSLRLSCAASGFTFDGYAMGWYRQAPGKERELVAAIRRSGASTYYADSVKGRFTISRDNAKNTVYLHMNSLKPEDTAVYYCNATRNYEPRYSSFTLRGYYWGQGTQVTVSS”, the “polyreactivity (PSR sort gate)” value was “low polyreactivity”.
For “QVQLVESGGGLVQAGGSLRLSCAASGFTFDGYAMGWYRQAPVKERDLVAAISDSGDSTYYADSVKGRFTISRDNAKNTVYVQMNILKPEDTAVYYCNAEQWQSSEYGEWSKRDYWGQGTQVTVSS”, the “polyreactivity (PSR sort gate)” value was “low polyreactivity”.
For “QVQLVESGGGLVQAGGSLRLSCAASGFTFDHYAMGWCRQAPGKERELVAAITSSGGRTYYADSVKGRFTISRDNAKNTVYLQMNSLKPEDTAVYYCNARPVYYSGYGYWGQGTQVTVSS”, the “polyreactivity (PSR sort gate)” value was “high polyreactivity”.
For “QVQLVESGGGLVQAGGSLRLSCAASGFTFDKYAMGWYRQAPGKERELVAAISGSGGTTYYADSVKGRFTISRDNAKNTVYLQMNSLKPEDTAVYYCATRLYSIYSYGYWGQGTQVTVSS”, the “polyreactivity (PSR sort gate)” value was “high polyreactivity”.
For “QVQLVESGGGLVQAGGSLRLSCAASGFTFDLYAMGWSRQAPGKERELVASISSGGITYYADSVKGRFTITRDNANNTVYLQMNSLKPEDTAVYYCARDWRYGSWEGDDYWGQGTQVTVSS”, the “polyreactivity (PSR sort gate)” value was “low polyreactivity”.
With “QVQLVESGGGLVQAGGSLRLSCAASGFTFDLYAMGWYRQAPGKERELVAAISWSGGSTRYADSVKGRFTISRDNAKNTVYLQMNSLKPADSAVYYCARQPRLYFKGKLYGYWGQGTHVTVSS” the “polyreactivity (PSR sort gate)” value was “high polyreactivity”.
For “QVQLVESGGGLVQAGGSLRLSCAASGFTFDNYVMGWYRQAPGKERELVAAISKSGTSTYYADSVKGRFTISRDNAKNTVYLQMNSLKPEDTAVYYCAAELPGYYYAYDYWGQGTQVTVSS”, the “polyreactivity (PSR sort gate)” value was “high polyreactivity”.
For “QVQLVESGGGLVQAGGSLRLSCAASGFTFDNYVMGWYSQAPGKERELVAAISKSGTSTYYADSVKGRFTISRDNAKNTVYLQMNSLKPEDTAVYYCAAALPGYGDYYYWGQGTQVTVSS”, the “polyreactivity (PSR sort gate)” value was “high polyreactivity”.
For “QVQLVESGGGLVQAGGSLRLSCAASGFTFDRYAMGWYRQAPGKERELVAAISWRGGSTYYADSVKGRFTISRDNAKNTDYLQMNSLKPEDTAVYYCNKGTRHTTAGTPRYDYWGQGTQVTVSS”, the “polyreactivity (PSR sort gate)” value was “high polyreactivity”.
With “QVQLVESGGGLVQAGGSLRLSCAASGFTFDSNAMGWYRQAPGKERELVAAISRRGGSTYYADSVKGRFTISRDNAKNTVYLQMNSLKPEDTAVYYCNKESWRIGRYQYDSWGQGTQVTVSS” the “polyreactivity (PSR sort gate)” value was “high polyreactivity”.
For “QVQLVESGGGLVQAGGSLRLSCAASGFTFDSYAMGWYRQAPGKERELVAAITSSGGRTYYADSVKGRFTISRDNAKNTVYLQMNSLKPEDTSVYYCAARAISNFGYWGQGTQVTVSS”, the “polyreactivity (PSR sort gate)” value was “high polyreactivity”.
With “QVQLVESGGGLVQAGGSLRLSCAASGFTFDSYAMGWYRQAPGKERELVAAITSTGGSTYYADSVKGRFTISRDTAKNTVYLQMNSLKPEDTAVYYCAARGGYYKRGYWGQGTQVTVSS” the “polyreactivity (PSR sort gate)” value was “high polyreactivity”.
With “QVQLVESGGGLVQAGGSLRLSCAASGFTFDSYDMGWSRQAPVKEREVVAAITWSGGSTYYADSVKGRFTISRDNAKNTVYLQMNSLKQEDTAVYYCNADTGTYWVPWYHDGYDYWGQGTQVTVSS” the “polyreactivity (PSR sort gate)” value was “low polyreactivity”.
In the case of “QVQLVESGGGLVQAGGSLRLSCAASGFTFDSYDMGWYRQAPGKERELVAAISKSGGTTYYADSLKGRFTISRDNANNTVYLQMNSLKPEDTAVFYCAAGGPRGGYGRYYYWGPGTQVTVSS”, the “polyreactivity (PSR sort gate)” value is reported as “high polyreactivity”.
In the case of “QVQLVESGGGLVQAGGSLRLSCAASGFTFDSYDMGWYRQAPGKERELVAAITWSGGSTYYADSVKGRFTISRDNAKNTVYLQMYSLKPEDTAVYYCKADTGTYWVPWYHDGYDYWGEGTQVTVSS”, the “polyreactivity (PSR sort gate)” value is reported as “low polyreactivity”.
With “QVQLVESGGGLVQAGGSLRLSCAASGFTFDVNAMGWYRQAPGKERELVASITGSGSRTDYADSVKGRFTISRDNAKNTVYLQMNSLKPEDTAVYYCATDQRLGYQDDDYWGQGTQVTVSS” the “polyreactivity (PSR sort gate)” value was “low polyreactivity”.
In the case of “QVQLVESGGGLVQAGGSLRLSCAASGFTFDVNAMGWYRQAPGKERELVATISSNGGSTYYADSVKGRFTISRDNAKNTVYLQMNSLKPEDTAVYYCAADVYRLLRRYRYYYWGQGTQVTVSS”, the “polyreactivity (PSR sort gate)” value is reported as “low polyreactivity”.
In the case of “QVQLVESGGGLVQAGGSLRLSCAASGFTFDVYALGWYRQAPGKERELVAAISARGGSTCYADSVKGRFTISRDNAKNTVYLQMHSLKPEDTAVYYCNTYPKKKRPNEYDYWGQGTQVTVSS”, the “polyreactivity (PSR sort gate)” value is reported as “high polyreactivity”.
In the case of “QVQLVESGGGLVQAGGSLRLSCAASGFTFDVYAMGWYRQAPGKERELVAAITGSDGSTYYADSVKGRFTISRDNAKNTVYLQMNSLKPEDTAVYYCNARSRSVVYKYDYWGQGTQVTVSS”, the “polyreactivity (PSR sort gate)” value is reported as “low polyreactivity”.
With “QVQLVESGGGLVQAGGSLRLSCAASGFTFDYNAMGWYRQAPGKDRELVAVISSSGSRTYYADSVKGRFTISRDNAKNTVYLQMNSLKPEDTAVYYCNSGRTYRRLGDYWGQGTQVTVSS” the “polyreactivity (PSR sort gate)” value was “high polyreactivity”.
With “QVQLVESGGGLVQAGGSLRLSCAASGFTFDYYAMGWYRPAPGKERELVAAISWRGTTTYYADSVKGRFTISRDNEKNTVYLQMNSLKPEDTAVYYCAADSLFGHYDYWGHGTQVTVSS” the “polyreactivity (PSR sort gate)” value was “low polyreactivity”.
With “QVQLVESGGGLVQAGGSLRLSCAASGFTFDYYAMGWYRQAPGKERELVAAISVSGGITYYADSVKGRFTISRDNAKNTVYLQMNSLKPEDTAVYYCNAVFYYPYPADRRDYWGQGTQVTVSS” the “polyreactivity (PSR sort gate)” value was “high polyreactivity”.
With “QVQLVESGGGLVQAGGSLRLSCAASGFTFDYYNMGWYRQAPGKERELVAAITSGASTNYADSVKGRFTISRDNAKNTVYLQMNSLKPEDTAVYYCAAVLAGGVYWVVHYDYWGQGTQVTVSS” the “polyreactivity (PSR sort gate)” value was “low polyreactivity”.
In the case of “QVQLVESGGGLVQAGGSLRLSCAASGFTFEDNTMGWYRQAPGKERELVAAITWGGVSTYYADSVKGRFTISRDNAKNTVYLQMNSLKPEDTAVYYCAAEEQVVKAHGDYWGQGTQVTVSS”, the “polyreactivity (PSR sort gate)” value is reported as “low polyreactivity”.
With “QVQLVESGGGLVQAGGSLRLSCAASGFTFEENAMGWYRQAPGINYSGASTYYADSVKGRFTISRDKAKNTVYLQMNSLKPDDTAVYYCAADVVAQMNYWGQGTQVTVSS” the “polyreactivity (PSR sort gate)” value was “low polyreactivity”.
With “QVQLVESGGGLVQAGGSLRLSCAASGFTFEGYAMGWYRQAPGKERELVAAISSNGGRTYYADSVKGRFTISRDNAKNTVYLQMNSLKPEDTAVYYCNARRAYSGPDYDYYHGRRYDYWGQGTQVTVSS” the “polyreactivity (PSR sort gate)” value was “low polyreactivity”.
In the case of “QVQLVESGGGLVQAGGSLRLSCAASGFTFERNAMGWYIQAPGKERELVATINGSSDSTYYADSVKGRFTISRDNAKNTVYLQMNSLKPEDTAVYYCNADSITEGNSRYSHFDYWGQGTQVTVSS”, the “polyreactivity (PSR sort gate)” value is reported as “low polyreactivity”.
With “QVQLVESGGGLVQAGGSLRLSCAASGFTFESYAMGWYRQAPGKERELVAAISWNGGSTYYADSVKGRFTISRDNAKNTVYLQMNSLKPADTAVYYCAARGRAPRFRRIGYDYWGQGTQVTVSS” the “polyreactivity (PSR sort gate)” value was “high polyreactivity”.
With “QVQLVESGGGLVQAGGSLRLSCAASGFTFEYYAMGWSRQAPGKETELVATITWNGGSTYYADSVKGRFTISRDNAKNTVYLQMNSLKPVDTAVYYCAADEQAYYVRRFDYWGQCTQVTVSS” the “polyreactivity (PSR sort gate)” value was “low polyreactivity”.
In the case of “QVQLVESGGGLVQAGGSLRLSCAASGFTFEYYAMGWYRQAPGKERELVAAIRSDSGTNYADSVKGRFTISRDNAKNTVYLQMNSLIPEDTAVYYCAAPTVVLIDYDYWGQGTQVTVSS”, the “polyreactivity (PSR sort gate)” value is reported as “low polyreactivity”.
